Test results taken from patent publication US20110206686A1 (published 2011).

Legend:
human IL-23 [1] = target: T1, human IL-23 (human, UniProt Q9NPF7 20-189; P29460 23-328); test: blocking ELISA, optimised protocol (Example 6): antibody pre-incubated with constant human IL-23, binding to plate-coated human IL-23R Fc chimera detected with biotinylated anti-human IL-12, OD450; purified antibody
T1 construct: Heterodimer of p19 and p40; also called hIL-23; recombinant human IL-23
T1 sequence 1: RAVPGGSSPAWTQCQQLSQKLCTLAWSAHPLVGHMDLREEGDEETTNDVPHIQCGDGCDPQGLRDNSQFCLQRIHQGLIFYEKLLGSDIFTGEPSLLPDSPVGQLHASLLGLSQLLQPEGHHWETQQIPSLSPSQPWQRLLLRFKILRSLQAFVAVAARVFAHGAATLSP
T1 sequence 2: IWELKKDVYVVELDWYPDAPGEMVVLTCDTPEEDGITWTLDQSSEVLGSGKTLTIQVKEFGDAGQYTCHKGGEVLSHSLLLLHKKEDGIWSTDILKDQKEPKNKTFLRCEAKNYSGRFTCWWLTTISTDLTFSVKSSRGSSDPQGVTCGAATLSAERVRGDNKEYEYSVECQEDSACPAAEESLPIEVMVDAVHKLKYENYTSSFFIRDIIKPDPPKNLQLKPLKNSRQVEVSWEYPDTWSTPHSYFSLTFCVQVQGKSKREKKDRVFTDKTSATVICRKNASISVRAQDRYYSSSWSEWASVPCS
Procedure: Optimised protocol: Plates were coated with human IL23R Fc chimera at […] (phosphate buffered saline). 50 μl/well of this mixture was incubated overnight at 4° C. The plates were then washed three times with Phosphate Buffered Saline with 0.05% Tween 20 (PBST). Plates were blocked with 4% skim milk powder (Fluka BioChemika #70166) PBST 100 μl/well for a minimum of 1 hour at room temperature. The plates were then washed three times with Phosphate Buffered Saline+0.05% Tween 20 (PBST). Various concentrations of antibody were incubated in a separate plate with a constant concentration of IL-23 for 1 hour at room temperature. 50 ul of each mixture were transferred to the assay plate and incubated at RT for 1 hr. They were then washed three times with Phosphate Buffered Saline+0.05% Tween 20 (PBST). Bound IL23 was detected by anti human IL12 Biotin labelled Ab (R&D systems BAF219) diluted to 100 ng/ml in 4% skim milk powder (Fluka BioChemika #70166) PBST. 50 μl/well of the biotinylated antibody was added and incubated at RT for 1 hour. The plates were then washed three times with Phosphate Buffered Saline+0.05% Tween 20 (PBST). SA HRP (GE healthcare RPN4401) was diluted 1/4000 in 4% skim milk powder (Fluka BioChemika #70166) PBS, 50 μl/well was added to the plates. […] The plate was read at OD450 nm using the SOftmaxPRO versamax plate reader.

human IL-23 [2] = target: T1, human IL-23; test: blocking ELISA (Example 10): purified antibody pre-incubated with endogenous human IL-23 (5 ng/ml), binding to plate-coated recombinant human IL-23 receptor detected with biotinylated anti-human IL-12; 25% human pooled AB serum
Procedure: Recombinant human IL-23 Receptor (R&D systems 1400-IR-050) was coated onto 96 well plates at a concentration of 1 μg/ml. Endogenous human IL-23 at 5 ng/ml final, was pre incubated with a titration of purified mAbs before being added to the pre-coated plates. Detection was performed with biotinylated anti-human IL12 (R&D systems BAF-219), followed by Streptavidin-HRP (GE Healthcare RPN 4401). This neutralisation ELISA used 25% human pooled AB type serum. 8C92H₆, HC1LC1, and A3M0 retain their activity in human serum and inhibit binding of endogenous human IL-23 binding to human IL-23 receptor.

human IL-23 [3] = target: T1, human IL-23; test: blocking ELISA (Example 9): purified antibody pre-incubated with endogenous human IL-23 (3.5 ng/ml, from stimulated dendritic cells), binding to plate-coated recombinant human IL-23 receptor detected with biotinylated anti-human IL-12; 1% BSA
Procedure: Recombinant human IL-23 Receptor (R&D systems 1400-IR-050) was coated onto 96 well plates at a concentration of 1 μg/ml. Endogenous human IL-23 at 3.5 ng/ml final, was pre incubated for 1 hour with a titration of purified antibody material before being added to the pre-coated plates. Detection was performed with biotinylated anti-human IL12 (R&D systems BAF-219) followed by Streptavidin-HRP (GE Healthcare RPN 4401). This neutralisation ELISA used 1% BSA.

B1: A3N2 (antibody, human IgG1, kappa, V domains shown)
VH: QVQLVQSGAEVKKPGSSVKVSCKASGYTFTSYGITWVRQAPGQGLEWMGENYPRSGNTYYNEKFKGRVTITADKSTSTAYMELSSLRSEDTAVYYCARSEFISTVVAPYYYALDYWGQGTLVTVSS
VL: DIVMTQTPLSLSVTPGQPASISCKASKKVTIFGSISALHWYLQKPGQPPQLIYNGAKLESGVSDRFSDSGSGTDFTLKISRVEAEDVGVYYCLQNKEVPYTFGGGTKVEIKR
Human IL-23 [1]
  IC50 (read off the curve): ~0.9 nM

B2: A3M0 (antibody, human IgG1, kappa, V domains shown)
VH: B1 VH
VL: DIVMTQSPDSLAVSLGERATINCKASKKVTIFGSISALHWYQQKPGQPPKLIYNGAKLESGVPDRFSGSGSGTDFTLTISSLQAEDVAVYYCLQNKEVPYTFGGGTKVEIKR
notes: Humanised, human gamma1 and kappa constant regions; also called A3M0 (humanised)
Human IL-23 [2]
  IC50 (read off the curve): ~20 ng/mL

B3: murine mAb 8C9 2H6 (antibody, V domains shown)
VH: QVQLQQSGAELARPGTSVKLSCKASGYTFTSYGITWVKQRTGQGLEWIGENYPRSGNTYYNEKFKGKATLTADKSSSTAYMELRSLTSEDSAVYFCARCEFISTVVAPYYYALDYWGQGTSVTVSS
VL: DIVLTQSPASLAVSLGQKATISCKASKKVTIFGSISALHWYQQKPGQPPKLIYNGAKLESGVSARFSDSGSQNRSPFGNQLSFTLTIDPVEADDAATYYCLQNKEVPYTFGGGTKLEIK
notes: Murine hybridoma antibody; also called 8C92H6 (mouse parental); murine 8C92H6 mAb
Human IL-23 [3]
  IC50 (read off the curve): ~50 ng/mL
